In the assay the target is ephrin B3 expressed on CHO cells. The assay is described as follows: inferred by the filing from ELISA, Octet and flow cytometry taken together. For orientation: ELISA stands for enzyme-linked immunosorbent assay.

“wild-type (WT) human EphA4-Fc (Fc fusion)” gave a concentration that would saturate of over 10 µg/mL.

Values taken from patent publication US20180339020A1.
